Measured values reported in PMC8221081.

Biological target: Gankyrin (Gank) (UniProt Q9Z2X2)
Assay: Gank IP, C/EBPα Western blot
Conditions: reference: wild-type mice, DEN-treated; sites S193

For “C/EBPα (from UniProt P53566) C/EBPα-S193A mice, DEN-treated”, the “binding against the reference” value was “lost”.
